From publication PMC8024308, “Epitope-directed monoclonal antibody production using a mixed antigen cocktail facilitates antibody characterization and validation” (Communications Biology, 2021) come the findings set out here.

This series deals with the molecule itself. The series is described as follows: ELISA; two-site sandwich ELISA with the same mAb (30D12 or 4F2) as coated capture (5 ug/ml) and as biotinylated detector (1 ug/ml); recombinant hANKRD1 at 20 ng/ml; self-pairing read as dimer. (An ELISA detects its analyte on a solid surface through an enzyme-linked reagent.)

B1: recombinant human ankyrin repeat domain 1 (hANKRD1; OriGene Technologies) (natural protein)
chain: not shown
notes: human ankyrin repeat domain 1 (ANKRD1), full-length recombinant protein, N-terminal His-tagged, OriGene Technologies; expected mass 43 kDa; The preparation holds monomer (43 kDa) and dimer (86 kDa) on non-reducing SDS-PAGE; also called recombinant hANKRD1; source: bought: OriGene Technologies (bacterially derived recombinant preparation)
As for B1, the binding result is reported as “binds”.
